# Experimental data published in patent US20250304675A1 (MHS CARE INNOVATION, published 2025).
# T1: gastric inhibitory polypeptide (GIP), species not stated at the place of the result (Homo sapiens (Human), UniProt P09681 52-93)
# T1 peptide: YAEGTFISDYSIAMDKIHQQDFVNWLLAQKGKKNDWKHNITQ
# T2: human gastric inhibitory polypeptide (glucose-dependent insulinotropic polypeptide) (human)
# T2 construct: also called human GIP; hGIP
# T2 peptide: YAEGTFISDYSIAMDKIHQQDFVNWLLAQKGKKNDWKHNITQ
# Assays:
# [1] = target: human gastric inhibitory polypeptide (glucose-dependent insulinotropic polypeptide) (human)
# [2] = target: T1, gastric inhibitory polypeptide (GIP), …; test: hybridoma screening; assay not further stated
# [3] = target: T2, human gastric inhibitory polypeptide …; test: direct binding ELISA, CHO supernate on coated human GIP; 3rd of 10 in the printed order
# Experimental: (§1) CHO cells co-transfected with the mammalian expression vectors were grown in culture and the supernate collected. The supernate was evaluated for the presence of GIP-binding mAbs by direct binding ELISA Human GIP was fixed to the bottom of the wells on 96-well plates. Serial dilutions of the supernate were added to different wells of the 96-well plate. After a one hour incubation, the wells were washed twice with PBS before a secondary antibody that specifically binds to human IgG was added to each well. The antibody that specifically binds to human IgG was conjugated with the enzyme horse radish peroxidase (HRP). After incubation for one hour, the wells were washed with PBS before the HRP substrate was added. If HRP was present in a well, the substrate was converted to a colored compound. The amount of color intensity was read using a spectrophotometer. The amount of color produced was proportional to the amount of HRP-antibody conjugate remaining in each well. The amount of color produced was also proportional to the amount of mAb bound to hGIP in each well.
# [4] = target: T2, human gastric inhibitory polypeptide …; test: direct binding ELISA, CHO supernate on coated human GIP; 10th of 10 in the printed order
# Experimental: as §1
# [5] = target: T2, human gastric inhibitory polypeptide …; test: direct binding ELISA, CHO supernate on coated human GIP; 6th of 10 in the printed order
# Experimental: as §1
# [6] = target: T1, gastric inhibitory polypeptide (GIP), …; test: modified Schild's assay plot, reporter cell line expressing GIP receptors (derived from a functional assay)
# [7] = target: T2, human gastric inhibitory polypeptide …; test: direct binding ELISA, CHO supernate on coated human GIP; 9th of 10 in the printed order
# Experimental: as §1
# [8] = target: T2, human gastric inhibitory polypeptide …; test: direct binding ELISA, CHO supernate on coated human GIP; 7th of 10 in the printed order
# Experimental: as §1
# [9] = target: T2, human gastric inhibitory polypeptide …; test: direct binding ELISA, CHO supernate on coated human GIP; 4th of 10 in the printed order
# Experimental: as §1
molecule,measurement,setting,value
Fc,"Relative Activity (beta-galactosidase of LGIPR3a reporter cells expressing rat GIPR; Fc mixed with 0.1 nM hGIP; bar as high as that of GIP alone, 0.098, so no neutralization)",[1],0.105
"14B9 antibody (antibody, V domains shown, Comparison antibody) VH: QVQLQESGAALVRSGASVKLSCTASGFNIKDYYFHWVKQRPDQGLEWIGWIDPENGDTEYAPNFQVKATMTADTYSNTAYLHLSSLTSEDTAVYYCNSYGNNYFDYWGQGTTVTVSS VL: DIQLTQSPAIMAASLGQKVTMTCSASSSVSSSYLHWYQQKSGASPKSLIHRTSNLASGVPARFSGSGSGTSYSLTISSVEAEDDATYYCLQWSGFPFTFGSGTKLEIKR",binding result,[2],no binding
"LC3/HC2 humanized antibody (antibody, V domains shown, Tested as CHO supernate) VH: QVQLVQSGAEVKKPGATVKISCKASGFNIRDYYLHWVQQAPGKGLEWMGWIDPENGDTEYAPKFQGRVTITADTSTNTAYMELSSLRSEDTAVYYCNVYGIYFMDYWGQGTMVTVSS VL: DIQMTQSPGTLSLSPGERATLSCRASSSISSNSLHWYQQKPGQAPRLLIYRTSNRATGIPARFSGSGSGTDYTLTISSLEPEDFAVYYCQQGSSFPRMLTFGGGTKVEIKR",binding result,[3],binds
"LC3/HC3 humanized antibody (antibody, V domains shown, Tested as CHO supernate) VH: QVQLQESGAEVKKPGASVKVSCKASGFNIRDYYLHWVRQAPGQGLEWMGWIDPENGDTEYAPKFQGRVTTTADTSISTAYMELSRLRSDDTAVYYCNVYGIYFMDYWGQGTLVTVSS VL: DIQMTQSPGTLSLSPGERATLSCRASSSISSNSLHWYQQKPGQAPRLLIYRTSNRATGIPARFSGSGSGTDYTLTISSLEPEDFAVYYCQQGSSFPRMLTFGGGTKVEIKR",binding result,[4],binds
"LC3/HC1 humanized antibody (antibody, V domains shown, Tested as CHO supernate) VH: QVQLVQSGAEVKKPGATVKISCKVSGFNIRDYYLHWVQQAPGKGLEWMGWIDPENGDTEYAPKFQGRVTITADTSTDTAYMELSSLRSEDTAVYYCNVYGIYFMDYWGQGTMVTVSS VL: DIQMTQSPGTLSLSPGERATLSCRASSSISSNSLHWYQQKPGQAPRLLIYRTSNRATGIPARFSGSGSGTDYTLTISSLEPEDFAVYYCQQGSSFPRMLTFGGGTKVEIKR",binding result,[5],binds
"10g10 monoclonal antibody (original mouse mAb) (antibody, V domains shown, Mouse hybridoma antibody; also called 10g10 mAb; 10g10 GIP mAb) VH: QVQLQESGAELVRSGASVKLSCTASGFNIRDYYLHWIKQRPEQGLEWIGWIDPENGDTEYAPKFQDKATVTADTSSNTAYLQLNSLTSEDTAVYYCNVYGIYFMDYWGQGTTVTVSS VL: DIQLTQSPSTMAASPGEKITITCSASSSISSNSLHWYQQKPGFSPKLLIYRTSNLASGVPGRFSGSGSGTSYSLTIGTMETEDVATYYCQQGSSFPRMLTFGTGTKLEIKR",Kd,[6],3200 nM
"LC1/HC3 humanized antibody (antibody, V domains shown, Tested as CHO supernate) VH: QVQLQESGAEVKKPGASVKVSCKASGFNIRDYYLHWVRQAPGQGLEWMGWIDPENGDTEYAPKFQGRVTTTADTSISTAYMELSRLRSDDTAVYYCNVYGIYFMDYWGQGTLVTVSS VL: DIQMTQSPSSVSASVGDRVTITCRASSSISSNSLHWYQQKPGKAPKLLIYRTSSLQSGVPSRFSGSGSGTDYTLTISSLQPEDFATYYCQQGSSFPRMLTFGQGTKLEIKR",binding result,[7],binds
"LC2/HC2 humanized antibody (antibody, V domains shown, CHO supernate in the ELISA; Protein A purified in the neutralization assay; also called mAbH; GIP mAbH) VH: QVQLVQSGAEVKKPGATVKISCKASGFNIRDYYLHWVQQAPGKGLEWMGWIDPENGDTEYAPKFQGRVTITADTSTNTAYMELSSLRSEDTAVYYCNVYGIYFMDYWGQGTMVTVSS VL: DIQLTQSPSSVSASVGDRVTITCRASSSISSNSLHWYQQKPGKAPKLLIYRTSNLQSGVPSRFSGSGSGTDYTLTISSLQPEDFATYYCQQGSSFPRMLTFGQGTKLEIKR",Kd,[6],2200 nM
"LC1/HC1 humanized antibody (antibody, V domains shown, Tested as CHO supernate) VH: QVQLVQSGAEVKKPGATVKISCKVSGFNIRDYYLHWVQQAPGKGLEWMGWIDPENGDTEYAPKFQGRVTITADTSTDTAYMELSSLRSEDTAVYYCNVYGIYFMDYWGQGTMVTVSS VL: DIQMTQSPSSVSASVGDRVTITCRASSSISSNSLHWYQQKPGKAPKLLIYRTSSLQSGVPSRFSGSGSGTDYTLTISSLQPEDFATYYCQQGSSFPRMLTFGQGTKLEIKR",binding result,[8],binds
"LC1/HC2 humanized antibody (antibody, V domains shown, Tested as CHO supernate) VH: QVQLVQSGAEVKKPGATVKISCKASGFNIRDYYLHWVQQAPGKGLEWMGWIDPENGDTEYAPKFQGRVTITADTSTNTAYMELSSLRSEDTAVYYCNVYGIYFMDYWGQGTMVTVSS VL: DIQMTQSPSSVSASVGDRVTITCRASSSISSNSLHWYQQKPGKAPKLLIYRTSSLQSGVPSRFSGSGSGTDYTLTISSLQPEDFATYYCQQGSSFPRMLTFGQGTKLEIKR",binding result,[9],binds
